In US10501552B2, “Multivalent molecules comprising DR5-binding domains” (MacroGenics, Inc., priority 2015, dated 2019):

Assays:
BT474 = assay: […]-GLO cell viability assay with vorinostat; assay type: cell-based; conditions: BT474 (Breast); 1 μg/ml + 10 μM Vorinostat
A549 = assay: MTS cell proliferation assay; assay type: cell-based, human; conditions: A549 (Lung); 1 μg/ml, ±10 μg/ml αmFc; two days
Description: (§1) Cell lines obtained from ATCC were cultured under standard tissue culture conditions. Each cell line was plated at ˜2×10^4 cells/well (in 96-well plates), and incubated overnight in F12/DMEM media supplemented with 10% FBS. […] Cell viability was determined using Promega CellTiter 96® AQeous Non-Radioactive Cell Proliferation Assay (Cat # G5430) essentially as described in the manufacturer's instructions to assay the amount of soluble formazan produced by cellular reduction of the MTS, which is a measure of the number of viable cells in the culture. Briefly, MTS/PMS regent was added to the wells and the absorbance at 490 nm (referenced at […]) was read in a Molecular Devices ThermoMax microplate reader.
(§2) Similar studies were performed over a range of anti-DR5 mAb concentrations from ˜10^−3 nM to ˜10^2 nM. The data for COLO205 cells is provided in FIG. 13, and are representative of cell lines sensitive to the antibodies of the invention.
(§3) The cytotoxicity of tetravalent DR5-Binding Molecules of the present invention was investigated. […] His-tagged TRAIL (R&D systems) was used as a positive control.
(§4) Similar studies were performed over a range of anti-DR5 mAb concentrations from ˜10^−3 nM to ˜10^2 nM.

DU145 = assay: MTS cell proliferation assay; assay type: cell-based, human; conditions: DU145 (Prostate); 1 μg/ml, ±10 μg/ml αmFc; two days
Description: as §1, §2, §3, §4

SKBR3 = assay: MTS cell proliferation assay; assay type: cell-based, human; conditions: SKBR3 (Breast); 1 μg/ml, ±10 μg/ml αmFc; two days
Description: as §1, §2, §3, §4

LNCap [1] = assay: MTS cell proliferation assay; assay type: cell-based, human; conditions: LNCap (Prostate); 1 μg/ml, ±10 μg/ml αmFc; two days
Description: as §1, §2, §3, §4

SKMES = assay: MTS cell proliferation assay; assay type: cell-based, human; conditions: SKMES (Lung); 1 μg/ml, ±10 μg/ml αmFc; two days
Description: as §1, §2, §3, §4

Hs700T = assay: […]-GLO cell viability assay with vorinostat; assay type: cell-based; conditions: Hs700T (Pancreas); 1 μg/ml + 1 μM Vorinostat
LNCap [2] = assay: […]-GLO cell viability assay with vorinostat; assay type: cell-based, human; conditions: LNCap (Prostate); 1 μg/ml + 10 μM Vorinostat
MDA-MB-175VII = assay: […]-GLO cell viability assay with vorinostat; assay type: cell-based; conditions: MDA-MB-175VII (Breast); 1 μg/ml + 1 μM Vorinostat
[3] = target: cynomolgus monkey DR5 (His-tagged); assay: Biacore analysis of binding kinetics; design: ka / kd: unit not given here; conditions: tested as DR5×CD3 mAb 2 diabody
Description: Bispecific DR5×CD3 diabodies were incubated with His-tagged DR5 and the kinetics of binding was determined via Biacore analysis. […] FIG. 6, Panels A-D show the results for human DR5. FIG. 6, Panels E-H show the results for cynomolgus monkey DR5.

histidine tagged TRAIL = histidine tagged TRAIL (Homo sapiens, UniProt P50591); assay: binding to TRAIL-His coat; conditions: 2 μg/mL biotinylated; 1 μg/mL TRAIL-His coat
histidine tagged TRAIL, sequence (P50591 114-281 limits assumed): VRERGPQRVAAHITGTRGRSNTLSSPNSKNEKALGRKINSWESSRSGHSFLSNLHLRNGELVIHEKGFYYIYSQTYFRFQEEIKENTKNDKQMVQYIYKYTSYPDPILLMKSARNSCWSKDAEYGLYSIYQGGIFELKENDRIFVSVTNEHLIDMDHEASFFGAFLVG
Description: The amount of immobilized biotinylated antibody was assessed.

[4] = system: human DR5-Fc fusion protein; assay: competition for binding to immobilized DR5-Fc fusion; conditions: for amount of immobilized biotinylated antibody: 1 μg/mL biotinylated DR5 mAb, 1 μg/mL DR5-Fc Fusion coat
human DR5-Fc fusion protein, sequence (as listed by the source): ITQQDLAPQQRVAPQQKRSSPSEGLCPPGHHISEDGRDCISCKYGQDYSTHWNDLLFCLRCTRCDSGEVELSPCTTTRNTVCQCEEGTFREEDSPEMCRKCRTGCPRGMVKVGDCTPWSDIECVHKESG
Description: In order to determine whether the antibodies bound to different DR5 epitopes, a human DR5-Fc fusion protein was prepared and was coated to an immobilized surface.

NCI-N87 = assay: […]-GLO cell viability assay with vorinostat; assay type: cell-based; conditions: NCI-N87 (Stomach); 1 μg/ml + 1 μM Vorinostat

Row | Molecule | Net Gain (Average % Growth Inhibition) (BT474) [%] | % Inhibition (Average) (A549) [%] | % Inhibition (Average) (DU145) [%] | % Inhibition (Average) (SKBR3) [%] | % Inhibition (Average) (LNCap [1]) [%] | % Inhibition (Average) (SKMES) [%] | Net Gain (Average % Growth Inhibition) (Hs700T) [%] | Net Gain (Average % Growth Inhibition) (LNCap [2]) [%] | Net Gain (Average % Growth Inhibition) (MDA-MB-175VII) [%] | Kd [3] [nM] | ka [3] | kd [3] | amount of immobilized biotinylated antibody (histidine tagged TRAIL) | epitope comparison by competition [4] | amount of immobilized biotinylated antibody ([4]; 10 μg/mL competitor DR5 mAb 2) | amount of immobilized biotinylated antibody ([4]; 10 μg/mL competitor mIgG) | Net Gain (Average % Growth Inhibition) (NCI-N87) [%] | amount of immobilized biotinylated antibody ([4]; 10 μg/mL competitor DR5 mAb 1)
1 | DR5 mAb 1: anti-human DR5 monoclonal antibody; VL SEQ ID NO:3, VH SEQ ID NO:8 (antibody, listed as Mus musculus, V domains shown, (1)..(121) Anti-DR5 Antibody mAb 1 Heavy Chain Variable Region; (1)..(111) Anti-DR5 Antibody mAb 1 Light Chain Variable Region) VH: EVKFLESGGGLVQPGGSLKLSCVASGFDFSRYWMSWVRQAPGKGLEWIGEINPDSNTINYTPSLKDKFIISRDNAKNTLYLQMTKVRSEDTALYYCTRRAYYGNPAWFAYWGQGTLVTVSS VL: DIVLTQSPASLAVSLGQRATISCRASKSVSSSGYSYMHWYQQKPGQPPKVLIFLSSNLDSGVPARFSGSGSGTDFTLNIHPVEDGDAATYYCQHSRDLPPTFGGGTKLEIK | 2.15 | 2.79 | 1.66 | 1.97 | 2.1 | 1.75 | 0.22 | 3.81 | 0.95 | 32.5 | 4.0 × 10^6 | 1.3 × 10^−1 | 0.007 | bind to different epitopes | 0.826 | 2.162 | 0.12 | 
2 | DR5 mAb 2: murine anti-human DR5 monoclonal antibody; VL SEQ ID NO:13, VH SEQ ID NO:18 (antibody, listed as Mus musculus, V domains shown, (1)..(119) Anti-DR5 Antibody mAb 2 Heavy Chain Variable Region; (1)..(107) Anti-DR5 Antibody mAb 2 Light Chain Variable Region) VH: KVQLQQSGAELVKPGASVKLSCKASGYTFTEYILHWVKQKSGQGLEWIGWFYPGNNNIKYNEKFKDKATLTADKSSSTVYMELSRLTSEDSAVYFCARHEQGPGYFDYWGQGTTLTVSS VL: DIVMTQSHKFMSTSVGDRVSITCKASQDVNTAVAWYQQKPGQSPKLLIYWASTRHTGVPDRFTGSGSGTDYTLTIKSVQAEDLTLYYCQQHYITPWTFGGGTKLEIK | 2.23 | 4.25 | 2.09 | 2.55 | 1.72 | 1.28 | 0.22 | 4.49 | 0.95 | 0.42 | 2.4 × 10^5 | 1.0 × 10^−4 | 0.008 | bind to different epitopes |  | 2.102 | 0.36 | 2.377
